The values below come from US20190225669A1 (ACCELERON PHARMA, published 2019).

T1: BMP6 (UniProt P22004 382-513, limits assumed)
T1 sequence (looked up): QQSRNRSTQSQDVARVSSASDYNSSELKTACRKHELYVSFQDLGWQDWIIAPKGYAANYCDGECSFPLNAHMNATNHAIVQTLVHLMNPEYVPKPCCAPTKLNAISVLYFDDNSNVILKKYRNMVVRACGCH

T2: BMP5 (UniProt P22003 317-454, limits assumed)
T2 sequence (looked up): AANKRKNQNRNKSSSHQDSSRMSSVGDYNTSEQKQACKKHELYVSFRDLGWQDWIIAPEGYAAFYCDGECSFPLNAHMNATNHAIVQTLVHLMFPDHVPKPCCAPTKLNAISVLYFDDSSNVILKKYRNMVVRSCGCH

T3: ActRIIB-Fc homodimer (UniProt Q13705 19-137)
T3 construct: extracellular domain; also called ActRIIB homodimer
T3 sequence (looked up): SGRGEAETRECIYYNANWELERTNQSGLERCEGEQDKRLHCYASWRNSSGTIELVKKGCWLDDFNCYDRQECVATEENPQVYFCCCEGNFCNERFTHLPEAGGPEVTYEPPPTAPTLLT

T4: BMPRII-Fc homodimer (UniProt Q13873 27-150)
T4 construct: extracellular domain
T4 sequence (looked up): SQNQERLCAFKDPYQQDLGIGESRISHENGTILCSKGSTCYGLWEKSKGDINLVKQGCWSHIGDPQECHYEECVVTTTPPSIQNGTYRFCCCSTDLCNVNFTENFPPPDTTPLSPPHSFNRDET

B1: ALK3-Fc homodimer (Fc fusion, UniProt P36894 24-152, looked up, not shown: a dimerising Fc or GST)
chain: QNLDSMLHGTGMKSDSDQKKSENGVTLAPEDTLPFLKCYCSGHCPDDAINNTCITNGHCFAIIEEDDQGETTLASGCMKYEGSDFQCKDSPKAQLRRTIECCRTNLCNQYLQPTLPPVVIGPFFDGSIR
notes: extracellular domain
B2: BMP10 (ligand, UniProt O95393 317-424, looked up)
chain: NAKGNYCKRTPLYIDFKEIGWDSWIIAPPGYEAYECRGVCNYPLAEHLTPTKHAIIQALVHLKNSQKASKACCVPTKLEPISILYLDKGVVTYKFKYEGMAVSECGCR
B3: GDF11 (ligand, UniProt O95390 299-407, looked up)
chain: NLGLDCDEHSSESRCCRYPLTVDFEAFGWDWIIAPKRYKANYCSGQCEYMFMQKYPHTHLVQQANPRGSAGPCCTPTKMSPINMLYFNDKQQIIYGKIPGMVVDRCGCS
notes: also called BMP11
B4: GDF3 (ligand, UniProt Q9NR23 251-364, looked up)
chain: AAIPVPKLSCKNLCHRHQLFINFRDLGWHKWIIAPKGFMANYCHGECPFSLTISLNSSNYAFMQALMHAVDPEIPQAVCIPTKLSPISMLYQDNNDNVILRHYEDMVVDECGCG
B5: GDF5 (ligand, UniProt P43026 382-501, looked up)
chain: APLATRQGKRPSKNLKARCSRKALHVNFKDMGWDDWIIAPLEYEAFHCEGLCEFPLRSHLEPTNHAVIQTLMNSMDPESTPPTCCVPTRLSPISILFIDSANNVVYKQYEDMVVESCGCR
notes: also called BMP14
B6: activin B (ligand, UniProt P09529 293-407, looked up)
chain: GLECDGRTNLCCRQQFFIDFRLIGWNDWIIAPTGYYGNYCEGSCPAYLAGVPGSASSFHTAVVNQYRMRGLNPGTVNSCCIPTKLSTMSMLYFDDEYNIVKRDVPNMIVEECGCA

Like-named read-outs stand apart in the source and are kept apart here.

Common to all, as to assay: Biacore SPR
Experiment [1] deals with T1, BMP6. On the procedure:
(§1) Ligands were injected and allowed to flow over the captured receptor protein.

In experiment [2] the target is T2, BMP5. Here is the method:
as §1

Experiment [3] deals with T1, BMP6. On the procedure: as §1
The source holds these as a separate data set.

Experiment [4] addresses T2, BMP5. On the procedure:
as §1
The source holds these as a separate data set.

The target of experiment [5] is T3, ActRIIB-Fc homodimer. Here is the method: as §1
Experiment [6] concerns the target T3, ActRIIB-Fc homodimer. Here is the method:
as §1
The source holds these as a separate data set.

The target in experiment [7] is B1. On the procedure:
as §1

Experiment [8] has as its target T3, ActRIIB-Fc homodimer. On the procedure: as §1
The source holds these as a separate data set.

The target in experiment [9] is T4, BMPRII-Fc homodimer. Here is the method: as §1
Experiment [10] concerns the target T4, BMPRII-Fc homodimer. Here is the method: A Biacore™-based binding assay was used to compare ligand binding selectivity of the BMPRII-Fc:ALK2-Fc heterodimeric complex described above with that of BMPRII-Fc and ALK2-Fc homodimeric complexes. […] Ligands were injected and allowed to flow over the captured receptor protein.
This is another data set of the same source.

Experiment [11] addresses T3, ActRIIB-Fc homodimer. Here is the method:
as §1
The source holds these as a separate data set.

Another experiment has as its target T5, ActRIIA-Fc homodimer (UniProt P27037 20-135).
T5 construct: extracellular domain
Here is the method: as §1

Experiment [12] has as its target T4, BMPRII-Fc homodimer. Here is the method:
as §1
The source holds these as a separate data set.

Experiment [13] concerns the target T3, ActRIIB-Fc homodimer. On the procedure: as §1
The source holds these as a separate data set.

The target of experiment [14] is T4, BMPRII-Fc homodimer. On the procedure: as §1
This is another data set of the same source.

The target of experiment [15] is B1. On the procedure: as §1
This is another data set of the same source.

T5 sequence (P27037 20-135): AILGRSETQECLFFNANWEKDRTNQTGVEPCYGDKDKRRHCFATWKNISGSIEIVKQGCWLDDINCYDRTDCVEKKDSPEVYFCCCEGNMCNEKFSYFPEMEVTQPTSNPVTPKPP

One may read the Kd as the free concentration of one partner at which half of the binding sites on the other are occupied at equilibrium, for simple one-to-one binding. Read a high Kd as weaker binding. One may read the koff as the rate constant with which the complex falls apart. High values mean fast dissociation, low ones slow dissociation. What is called kon is a measure of how fast the partners come together. As to B1, the Kd in the experiment with BMP6 [1] amounted to 35 nM; with BMP5 [2], 70 nM; in the experiment with BMP6 [3], 35 nM; in the experiment with BMP5 [4], 70 nM. The koff stood at 0.0049 s⁻¹ with BMP6 [1], 0.002 s⁻¹ with BMP5 [2], 0.0049 s⁻¹ with BMP6 [3] and 0.0023 s⁻¹ with BMP5 [4]. The kon with BMP6 [1] was determined as 140000 M⁻¹ s⁻¹; with BMP5 [2], 29000 M⁻¹ s⁻¹; with BMP6 [3] it was 140000 M⁻¹ s⁻¹; with BMP5 [4], 29000 M⁻¹ s⁻¹.
On to B2, for which the Kd with ActRIIB-Fc homodimer [5] turned out to be 0.005 nM; with ActRIIB-Fc homodimer [6], 0.025 nM; with ActRIIB-Fc homodimer [8], 0.004 nM; with BMPRII-Fc homodimer [9], 0.1 nM; in the experiment with BMPRII-Fc homodimer [10] it was 0.13 nM; in the experiment with ActRIIB-Fc homodimer [11] it was 0.018 nM. The Kd with ActRIIA-Fc homodimer was 0.085 nM; with BMPRII-Fc homodimer [12] it was 0.1 nM; with ActRIIB-Fc homodimer [13], 0.011 nM; with BMPRII-Fc homodimer [14], 0.1 nM. The koff came to 0.00028 s⁻¹ with ActRIIB-Fc homodimer [5]; 0.00015 s⁻¹ with ActRIIB-Fc homodimer [6]; 0.0002 s⁻¹ with ActRIIB-Fc homodimer [8]; 0.0025 s⁻¹ in the experiment with BMPRII-Fc homodimer [9]; 0.005 s⁻¹ in the experiment with BMPRII-Fc homodimer [10]; 0.00038 s⁻¹ in the experiment with ActRIIB-Fc homodimer [11]. In addition, the koff in the experiment with ActRIIA-Fc homodimer worked out at 0.0025 s⁻¹; in the experiment with BMPRII-Fc homodimer [12], 0.0025 s⁻¹; with ActRIIB-Fc homodimer [13], 0.00026 s⁻¹; with BMPRII-Fc homodimer [14], 0.0025 s⁻¹. Also, the kon with ActRIIB-Fc homodimer [5] was determined as 5.4e+07 M⁻¹ s⁻¹; with ActRIIB-Fc homodimer [6] it was 5.9e+06 M⁻¹ s⁻¹; in the experiment with ActRIIB-Fc homodimer [8], 5.9e+07 M⁻¹ s⁻¹; with BMPRII-Fc homodimer [9] it was 2.6e+07 M⁻¹ s⁻¹; in the experiment with BMPRII-Fc homodimer [10], 3.8e+07 M⁻¹ s⁻¹; in the experiment with ActRIIB-Fc homodimer [11] it was 2.1e+07 M⁻¹ s⁻¹. For the same molecule, the kon is 2.9e+07 M⁻¹ s⁻¹ with ActRIIA-Fc homodimer, 2.6e+07 M⁻¹ s⁻¹ with BMPRII-Fc homodimer [12], 2.3e+07 M⁻¹ s⁻¹ with ActRIIB-Fc homodimer [13] and 2.6e+07 M⁻¹ s⁻¹ with BMPRII-Fc homodimer [14]. For the same molecule, in the experiment with ALK3-Fc homodimer [7], the binding result is “no binding”.
Take B3: the Kd turned out to be 0.11 nM in the experiment with ActRIIB-Fc homodimer [5]; 0.002 nM with ActRIIB-Fc homodimer [6]; 0.002 nM with ActRIIB-Fc homodimer [8]; 0.074 nM in the experiment with ActRIIB-Fc homodimer [11]; 0.013 nM with ActRIIA-Fc homodimer; 0.002 nM with ActRIIB-Fc homodimer [13]. Besides, the koff stood at 0.00022 s⁻¹ in the experiment with ActRIIB-Fc homodimer [5]; 0.00015 s⁻¹ with ActRIIB-Fc homodimer [6]; 0.00011 s⁻¹ in the experiment with ActRIIB-Fc homodimer [8]; 0.00014 s⁻¹ with ActRIIB-Fc homodimer [11]; 0.00092 s⁻¹ in the experiment with ActRIIA-Fc homodimer; 0.00011 s⁻¹ in the experiment with ActRIIB-Fc homodimer [13]. Besides, the kon with ActRIIB-Fc homodimer [5] came to 2e+06 M⁻¹ s⁻¹; with ActRIIB-Fc homodimer [6] it was 9.6e+07 M⁻¹ s⁻¹; with ActRIIB-Fc homodimer [8], 5e+07 M⁻¹ s⁻¹; with ActRIIB-Fc homodimer [11] it was 1.9e+06 M⁻¹ s⁻¹; in the experiment with ActRIIA-Fc homodimer, 7.3e+07 M⁻¹ s⁻¹; with ActRIIB-Fc homodimer [13], 5e+07 M⁻¹ s⁻¹. Further, in the experiment with ALK3-Fc homodimer [7], the binding result is “no binding”.
Turning to B4, the Kd with ActRIIB-Fc homodimer [5] worked out at 1.7 nM; with ActRIIB-Fc homodimer [6], 1.5 nM; in the experiment with ActRIIB-Fc homodimer [8], 1.4 nM; with ActRIIB-Fc homodimer [11], 3.9 nM; in the experiment with ActRIIA-Fc homodimer it was 2.4 nM; with ActRIIB-Fc homodimer [13] it was 1.5 nM. For the same molecule, the koff was 0.002 s⁻¹ in the experiment with ActRIIB-Fc homodimer [5]; 0.0022 s⁻¹ in the experiment with ActRIIB-Fc homodimer [6]; 0.0023 s⁻¹ with ActRIIB-Fc homodimer [8]; 0.0018 s⁻¹ in the experiment with ActRIIB-Fc homodimer [11]; 0.0036 s⁻¹ with ActRIIA-Fc homodimer; 0.0022 s⁻¹ with ActRIIB-Fc homodimer [13]. Moreover, the kon in the experiment with ActRIIB-Fc homodimer [5] is 1.2e+06 M⁻¹ s⁻¹; in the experiment with ActRIIB-Fc homodimer [6], 1.4e+06 M⁻¹ s⁻¹; with ActRIIB-Fc homodimer [8], 1.6e+06 M⁻¹ s⁻¹; with ActRIIB-Fc homodimer [11] it was 470000 M⁻¹ s⁻¹; with ActRIIA-Fc homodimer, 1.5e+06 M⁻¹ s⁻¹; with ActRIIB-Fc homodimer [13], 1.4e+06 M⁻¹ s⁻¹. Moreover, in the experiment with ALK3-Fc homodimer [7], the binding result was “no binding”.
For the molecule B5, in the experiment with ALK3-Fc homodimer [7], binding was put at a Kd of 22 nM, the dissociation rate constant (koff) stood at 0.011 s⁻¹ and the kon stood at 480000 M⁻¹ s⁻¹. In the experiment with ALK3-Fc homodimer [15], this molecule returned a Kd of 22 nM, a koff of 0.011 s⁻¹ and a kon of 430000 M⁻¹ s⁻¹.
Consider B6, for which the Kd with ActRIIB-Fc homodimer [5] was determined as 0.028 nM; with ActRIIB-Fc homodimer [6], 0.008 nM; in the experiment with ActRIIB-Fc homodimer [8], 0.02 nM; with BMPRII-Fc homodimer [9], 3.8 nM; with BMPRII-Fc homodimer [10], 2.6 nM; with ActRIIB-Fc homodimer [11], 0.02 nM. Further, the figures for the Kd with ActRIIA-Fc homodimer, with ActRIIB-Fc homodimer [13] and with BMPRII-Fc homodimer [14] were 0.01 nM, 0.02 nM and 3.8 nM, respectively. The koff with ActRIIB-Fc homodimer [5] was 0.00011 s⁻¹; with ActRIIB-Fc homodimer [6], 0.00016 s⁻¹; with ActRIIB-Fc homodimer [8], 0.0001 s⁻¹; in the experiment with BMPRII-Fc homodimer [9] it was 0.075 s⁻¹; with BMPRII-Fc homodimer [10] it was 0.0049 s⁻¹; with ActRIIB-Fc homodimer [11], 0.0001 s⁻¹. Also, the results for the koff in the experiment with ActRIIA-Fc homodimer, with ActRIIB-Fc homodimer [13] and with BMPRII-Fc homodimer [14] were 0.00011 s⁻¹, 0.0001 s⁻¹ and 0.075 s⁻¹, respectively. For the same molecule, the kon in the experiment with ActRIIB-Fc homodimer [5] was determined as 3.8e+06 M⁻¹ s⁻¹; in the experiment with ActRIIB-Fc homodimer [6], 1.5e+07 M⁻¹ s⁻¹; in the experiment with ActRIIB-Fc homodimer [8], 5.1e+06 M⁻¹ s⁻¹; with BMPRII-Fc homodimer [9] it was 2e+07 M⁻¹ s⁻¹; with BMPRII-Fc homodimer [10] it was 1.9e+06 M⁻¹ s⁻¹; in the experiment with ActRIIB-Fc homodimer [11], 5.1e+06 M⁻¹ s⁻¹. Further, the kon with ActRIIA-Fc homodimer turned out to be 1.1e+07 M⁻¹ s⁻¹; in the experiment with ActRIIB-Fc homodimer [13], 5.1e+06 M⁻¹ s⁻¹; with BMPRII-Fc homodimer [14] it was 2e+07 M⁻¹ s⁻¹. Besides, the binding result with ALK3-Fc homodimer [7] is given as “no binding”.
